Residue numbers refer to the chain shown, from its start. Numbers in names are those of the source.
Molecular target: the molecule itself
Test: SEC; Superdex 200 10/300 GL, 50 mM sodium phosphate pH 7.4, 100 mM NaCl, 2 mM TCEP; 200 ul of 0.5 mg/ml protein; calibrated with high molecular weight standards

B1: cytosolic purine 5'-nucleotidase (cN-II), full-length wild type (enzyme, human, UniProt P49902 1-561, looked up)
chain: MSTSWSDRLQNAADMPANMDKHALKKYRREAYHRVFVNRSLAMEKIKCFGFDMDYTLAVYKSPEYESLGFELTVERLVSIGYPQELLSFAYDSTFPTRGLVFDTLYGNLLKVDAYGNLLVCAHGFNFIRGPETREQYPNKFIQRDDTERFYILNTLFNLPETYLLACLVDFFTNCPRYTSCETGFKDGDLFMSYRSMFQDVRDAVDWVHYKGSLKEKTVENLEKYVVKDGKLPLLLSRMKEVGKVFLATNSDYKYTDKIMTYLFDFPHGPKPGSSHRPWQSYFDLILVDARKPLFFGEGTVLRQVDTKTGKLKIGTYTGPLQHGIVYSGGSSDTICDLLGAKGKDILYIGDHIFGDILKSKKRQGWRTFLVIPELAQELHVWTDKSSLFEELQSLDIFLAELYKHLDSSSNERPDISSIQRRIKKVTHDMDMCYGMMGSLFRSGSRQTLFASQVMRYADLYAASFINLLYYPFSYLFRAAHVLMPHESTVEHTHVDINEMESPLATRNRTSVDFKDTDYKRHQLTRSISEIKPPNLFPLAPQEITHCHDEDDDEEEEEEEE
notes: cytosolic purine 5'-nucleotidase (cN-II), human, EC 3.1.3.5, 561 residues; full length made by ligating a synthetic C-terminal tail into the truncated construct; Homotetramer; also called wild-type cN-II; NT5C2 product
stoichiometry N: 4

B2: cytosolic purine 5'-nucleotidase (cN-II) R238W, full-length (enzyme, human, UniProt P49902 1-561, looked up)
chain: B1 chain with R238W
notes: cytosolic purine 5'-nucleotidase (cN-II), human, 561 residues, with the relapsed-ALL somatic mutation R238W; Mutation found in patients with relapsed ALL; Homotetramer; also called R238W mutant
stoichiometry N: 4

B3: cytosolic purine 5'-nucleotidase (cN-II) L375F, full-length (enzyme, human, UniProt P49902 1-561, looked up)
chain: B1 chain with L375F
notes: cytosolic purine 5'-nucleotidase (cN-II), human, 561 residues, with the relapsed-ALL somatic mutation L375F; Mutation found in patients with relapsed ALL; Homotetramer; also called L375F mutant
stoichiometry N: 4

B4: cytosolic purine 5'-nucleotidase (cN-II) R367Q, full-length (enzyme, human, UniProt P49902 1-561, looked up)
chain: B1 chain with R367Q
notes: cytosolic purine 5'-nucleotidase (cN-II), human, 561 residues, with the relapsed-ALL somatic mutation R367Q; Mutation found in patients with relapsed ALL; Homotetramer; also called R367Q mutant
stoichiometry N: 4
